Source: patent US20230132049A1 (Genmab, published 2023)

What was measured:
human CD30 [1] = target: T1, human CD30 (human, UniProt P28908 19-595); experiment: cell-based or functional assay
T1 sequence: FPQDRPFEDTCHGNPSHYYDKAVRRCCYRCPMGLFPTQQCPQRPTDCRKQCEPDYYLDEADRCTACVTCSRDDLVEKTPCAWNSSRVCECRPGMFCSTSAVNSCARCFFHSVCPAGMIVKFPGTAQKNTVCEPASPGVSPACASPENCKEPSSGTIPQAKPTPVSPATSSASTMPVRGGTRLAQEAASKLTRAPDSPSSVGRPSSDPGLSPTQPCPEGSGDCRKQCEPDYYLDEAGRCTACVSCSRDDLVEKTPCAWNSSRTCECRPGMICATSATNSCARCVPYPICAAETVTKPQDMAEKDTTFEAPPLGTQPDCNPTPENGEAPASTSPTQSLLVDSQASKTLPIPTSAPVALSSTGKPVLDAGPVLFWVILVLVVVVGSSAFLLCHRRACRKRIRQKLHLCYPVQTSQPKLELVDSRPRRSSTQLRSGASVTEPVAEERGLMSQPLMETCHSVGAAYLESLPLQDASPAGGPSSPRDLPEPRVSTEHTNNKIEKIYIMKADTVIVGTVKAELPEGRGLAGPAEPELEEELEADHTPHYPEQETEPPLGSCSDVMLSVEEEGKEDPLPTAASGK

human CD30 [2] = target: T1, human CD30; experiment: cell-based or functional assay; remark: listed apart in the source
complement protein C1q = target: T2, complement protein C1q (human, UniProt P02745 23-245; P02746 28-253; P02747 29-245); experiment: flow cytometry with FITC anti-C1q: C1q from 20% human serum on activated human CD8+ T cells incubated with the antibody
T2 construct: Native C1q in 20% human serum
Protocol: Activated CD8⁺ T cells were seeded in a round-bottom 96-well plate (30,000 cells/well), pelleted, and resuspended in 30 μL assay medium (RPMI-1640 with 25 mM HEPES and L-glutamine, supplemented with 0.1% [w/v] bovine serum albumin fraction V (BSA; Roche, cat. no. 10735086001) and penicillin/streptomycin).
Human serum (20 μL/well; Sanquin, lot 20L15-02), as a source of C1q, was added to a final concentration of 20%. Cells were incubated on ice for 45 min, followed by two washes with cold GMB FACS buffer and incubation with 50 μL fluorescein isothiocyanate (FITC)-conjugated rabbit anti-human C1q (final concentration of 20 μg/mL (DAKO, cat no. F0254); diluted 1:75 in GMB FACS buffer) in the presence or absence of allophycocyanin-conjugated mouse-anti-CD8 (BD Biosciences, cat. no. 555369; diluted 1:50 in GMB FACS buffer) in the dark at 4° C. for 30 min. […] C1q binding to viable cells (as identified by DAPI exclusion) was analyzed by flow cytometry on an iQue3 Screener (Intellicyt Corporation). Data were analyzed using iQue software (Intellicyt Corporation, ForeCyt® Enterprise Client Edition 6.2 [R3], Version 6.2.652).

human CD30 [3] = target: T1, human CD30; experiment: flow cytometry on HEK293 cells transfected with human CD30

T2 sequence (P02745 23-245 limits assumed, chain 1 of 3): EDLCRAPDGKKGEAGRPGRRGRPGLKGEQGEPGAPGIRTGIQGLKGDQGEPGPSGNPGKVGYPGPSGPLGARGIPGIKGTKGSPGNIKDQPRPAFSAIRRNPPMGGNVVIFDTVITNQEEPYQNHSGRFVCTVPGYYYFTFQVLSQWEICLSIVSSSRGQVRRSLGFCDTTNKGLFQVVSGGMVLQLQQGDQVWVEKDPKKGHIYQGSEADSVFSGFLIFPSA
T2 sequence (P02746 28-253 limits assumed, chain 2 of 3): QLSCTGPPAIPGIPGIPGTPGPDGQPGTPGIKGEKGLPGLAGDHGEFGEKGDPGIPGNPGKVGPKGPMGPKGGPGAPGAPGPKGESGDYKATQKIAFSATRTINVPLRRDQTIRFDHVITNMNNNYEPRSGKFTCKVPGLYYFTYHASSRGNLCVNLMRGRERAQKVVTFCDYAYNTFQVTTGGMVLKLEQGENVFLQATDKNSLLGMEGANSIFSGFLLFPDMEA
T2 sequence (P02747 29-245 limits assumed, chain 3 of 3): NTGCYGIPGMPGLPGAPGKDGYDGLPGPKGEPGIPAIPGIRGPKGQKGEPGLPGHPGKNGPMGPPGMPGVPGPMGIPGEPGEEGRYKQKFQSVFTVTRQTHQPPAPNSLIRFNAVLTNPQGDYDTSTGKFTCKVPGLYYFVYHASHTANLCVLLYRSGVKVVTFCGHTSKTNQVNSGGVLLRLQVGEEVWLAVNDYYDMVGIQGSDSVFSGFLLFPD

binding result (complement protein C1q): no binding (tested: 30 µg/mL) | EC50 (read off the curve) (human CD30 [3]): ~0.09 µg/mL
B1: bsG1-huCD3-FEAL×CD30-MDX060-FERR (bispecific antibody, human IgG1, kappa, lambda)
heavy 1: not shown
light 1: not shown
heavy 2: QVQLQQWGAGLLKPSETLSLTCAVYGGSFSAYYWSWIRQPPGKGLEWIGDINHGGGTNYNPSLKSRVTISVDTSKNQFSLKLNSVTAADTAVYYCASLTAYWGQGSLVTVSSASTKGPSVFPLAPSSKSTSGGTAALGCLVKDYFPEPVTVSWNSGALTSGVHTFPAVLQSSGLYSLSSVVTVPSSSLGTQTYICNVNHKPSNTKVDKRVEPKSCDKTHTCPPCPAPEFERGPSVFLFPPKPKDTLMISRTPEVTCVVVDVSHEDPEVKFNWYVDGVEVHNAKTKPREEQYNSTYRVVSVLTVLHQDWLNGKEYKCKVSNKALPAPIEKTISKAKGQPREPQVYTLPPSREEMTKNQVSLTCLVKGFYPSDIAVEWESNGQPENNYKTTPPVLDSDGSFFLYSRLTVDKSRWQQGNVFSCSVMHEALHNHYTQKSLSLSPG
light 2: DIQMTQSPTSLSASVGDRVTITCRASQGISSWLTWYQQKPEKAPKSLIYAASSLQSGVPSRFSGSGSGTDFTLTISSLQPEDFATYYCQQYDSYPITFGQGTRLEIKRTVAAPSVFIFPPSDEQLKSGTASVVCLLNNFYPREAKVQWKVDNALQSGNSQESVTEQDSKDSTYSLSSTLTLSKADYEKHKVYACEVTHQGLSSPVTKSFNRGEC
notes: one arm of each; also called bsG1-huCD3×CD30-MDX060
cytotoxicity IC50 (µg/mL) average, Karpas-299 cells (human CD30 [1]): 0.029 µg/mL | cytotoxicity maximum lysis (%) average, Karpas-299 cells (human CD30 [1]): 52.3% | Cytotoxicity, Average IC50 (µg/mL), KI-JK cells (human CD30 [2]): 0.0015 µg/mL | Cytotoxicity, Average IC50 (µg/mL), L-428 cells (human CD30 [2]): 0.002 µg/mL
